Source: IntAct's records for PubMed 19412162

B1: F-box only protein 31 (Homo sapiens), Q5XUX0 (parent)
chain: MAVCARLCGVGPSRGCRRRQQRRGPAETAAADSEPDTDPEEERIEASAGVGGGLCAGPSPPPPRCSLLELPPELLVEIFASLPGTDLPSLAQVCTKFRRILHTDTIWRRRCREEYGVCENLRKLEITGVSCRDVYAKLLHRYRHILGLWQPDIGPYGGLLNVVVDGLFIIGWMYLPPHDPHVDDPMRFKPLFRIHLMERKAATVECMYGHKGPHHGHIQIVKKDEFSTKCNQTDHHRMSGGRQEEFRTWLREEWGRTLEDIFHEHMQELILMKFIYTSQYDNCLTYRRIYLPPSRPDDLIKPGLFKGTYGSHGLEIVMLSFHGRRARGTKITGDPNIPAGQQTVEIDLRHRIQLPDLENQRNFNELSRIVLEVRERVRQEQQEGGHEAGEGRGRQGPRESQPSPAQPRAEAPSKGPDGTPGEDGGEPGDAVAAAEQPAQCGQGQPFVLPVGVSSRNEDYPRTCRMCFYGTGLIAGHGFTSPERTPGVFILFDEDRFGFVWLELKSFSLYSRVQATFRNADAPSPQAFDEMLKNIQSLTS

Variants of: B1
Settings: with atm_human ATM

| effect of a mutation on the interaction | Variant |
| --- | --- |
| disrupting interaction | MAVCARLCGVGPSRGCRRRQQRRGPAETAAADSEPDTDPEEERIEASAGVGGGLCAGPSPPPPRCSLLELPPELLVEIFASLPGTDLPSLAQVCTKFRRILHTDTIWRRRCREEYGVCENLRKLEITGVSCRDVYAKLLHRYRHILGLWQPDIGPYGGLLNVVVDGLFIIGWMYLPPHDPHVDDPMRFKPLFRIHLMERKAATVECMYGHKGPHHGHIQIVKKDEFSTKCNQTDHHRMSGGRQEEFRTWLREEWGRTLEDIFHEHMQELILMKFIYTAQYDNCLTYRRIYLPPSRPDDLIKPGLFKGTYGSHGLEIVMLSFHGRRARGTKITGDPNIPAGQQTVEIDLRHRIQLPDLENQRNFNELSRIVLEVRERVRQEQQEGGHEAGEGRGRQGPRESQPSPAQPRAEAPSKGPDGTPGEDGGEPGDAVAAAEQPAQCGQGQPFVLPVGVSSRNEDYPRTCRMCFYGTGLIAGHGFTSPERTPGVFILFDEDRFGFVWLELKSFSLYSRVQATFRNADAPSPQAFDEMLKNIQSLTS [S278A] |
| disrupting interaction | MAVCARLCGVGPSRGCRRRQQRRGPAETAAADSEPDTDPEEERIEASAGVGGGLCAGPSPPPPRCSLLELPPELLVEIFASLPGTDLPSLAQVCTKFRRILHTDTIWRRRCREEYGVCENLRKLEITGVSCRDVYAKLLHRYRHILGLWQPDIGPYGGLLNVVVDGLFIIGWMYLPPHDPHVDDPMRFKPLFRIHLMERKAATVECMYGHKGPHHGHIQIVKKDEFSTKCNQTDHHRMSGGRQEEFRTWLREEWGRTLEDIFHEHMQELILMKFIYTSQYDNCLTYRRIYLPPSRPDDLIKPGLFKGTYGSHGLEIVMLSFHGRRARGTKITGDPNIPAGQQTVEIDLRHRIQLPDLENQRNFNELSRIVLEVRERVRQEQQEGGHEAGEGRGRQGPREAQPSPAQPRAEAPSKGPDGTPGEDGGEPGDAVAAAEQPAQCGQGQPFVLPVGVSSRNEDYPRTCRMCFYGTGLIAGHGFTSPERTPGVFILFDEDRFGFVWLELKSFSLYSRVQATFRNADAPSPQAFDEMLKNIQSLTS [S400A] |
